According to patent US20250197493A1:

What was measured:
[1] = molecular target: cell membrane-expressed cynomolgus LAG-3 (cynomolgus monkey); experiment: flow cytometry, SEB-activated cynomolgus PBMCs, CD4 T cells, percent of cells bound (isotype control)
[2] = molecular target: cell membrane-expressed cynomolgus LAG-3 (cynomolgus monkey); experiment: flow cytometry, SEB-activated cynomolgus PBMCs, CD8 T cells, percent of cells bound (isotype control)
[3] = molecular target: cell membrane-expressed human LAG-3 (human) (UniProt P18627); experiment: flow cytometry, SEB-activated human PBMCs, CD8 T cells, percent of cells bound (isotype control)
cell membrane-expressed human LAG-3 (human), sequence (P18627 23-525 limits assumed): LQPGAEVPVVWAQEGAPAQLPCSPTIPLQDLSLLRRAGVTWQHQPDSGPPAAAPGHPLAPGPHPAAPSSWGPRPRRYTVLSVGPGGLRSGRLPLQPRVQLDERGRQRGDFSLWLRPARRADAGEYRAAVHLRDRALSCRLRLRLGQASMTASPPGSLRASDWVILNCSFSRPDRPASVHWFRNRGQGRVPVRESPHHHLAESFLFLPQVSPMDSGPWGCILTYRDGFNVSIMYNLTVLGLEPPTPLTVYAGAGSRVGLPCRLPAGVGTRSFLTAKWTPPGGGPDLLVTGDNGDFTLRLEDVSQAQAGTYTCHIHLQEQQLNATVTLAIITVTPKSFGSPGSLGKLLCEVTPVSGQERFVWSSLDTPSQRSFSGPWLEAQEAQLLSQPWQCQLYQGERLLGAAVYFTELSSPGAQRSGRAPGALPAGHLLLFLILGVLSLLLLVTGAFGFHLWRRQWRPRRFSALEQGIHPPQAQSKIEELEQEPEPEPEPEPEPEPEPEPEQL

[4] = molecular target: cell membrane-expressed human LAG-3 (human) (UniProt P18627); experiment: flow cytometry, SEB-activated human PBMCs, CD4 T cells, percent of cells bound (isotype control)

Isotype hG1 (antibody)
EC50 [1]: 2450 µg/mL | EC50 [2]: 8.66 µg/mL | EC50 [3]: 0.676 µg/mL | EC50 [4]: 0.39 µg/mL
